Patent publication US9150632B2 (Indiana University Research and Technology Corporation, priority 2009, dated 2015)
pEC50: −log10 of the molar value. Non-standard residues stand in square brackets, D forms with d. Residues, ends and D or L forms follow the SMILES beside them. No end group written: not given here. *: point of attachment. Palmitoyl = CCCCCCCCCCCCCCCC(=O)*; Myristoyl = CCCCCCCCCCCCCC(=O)*; Aib = CC(C)(N)C(=O)O

Columns and labels:
[1] = biological target: T1, GIP receptor (Homo sapiens, UniProt P48546); test: Functional assay-cAMP synthesis, luciferase reporter in HEK293 cells, GIP receptor; type: cell-based; conditions: for GIP Receptor % relative activity: activity relative to the native hormone at the indicated receptor; for pEC50: read-out: GIP Receptor EC50, cAMP induction, in vitro, as in Example 14
T1 construct: expressed in transfected cells; host or cells: HEK293
T1 sequence (P48546 22-466): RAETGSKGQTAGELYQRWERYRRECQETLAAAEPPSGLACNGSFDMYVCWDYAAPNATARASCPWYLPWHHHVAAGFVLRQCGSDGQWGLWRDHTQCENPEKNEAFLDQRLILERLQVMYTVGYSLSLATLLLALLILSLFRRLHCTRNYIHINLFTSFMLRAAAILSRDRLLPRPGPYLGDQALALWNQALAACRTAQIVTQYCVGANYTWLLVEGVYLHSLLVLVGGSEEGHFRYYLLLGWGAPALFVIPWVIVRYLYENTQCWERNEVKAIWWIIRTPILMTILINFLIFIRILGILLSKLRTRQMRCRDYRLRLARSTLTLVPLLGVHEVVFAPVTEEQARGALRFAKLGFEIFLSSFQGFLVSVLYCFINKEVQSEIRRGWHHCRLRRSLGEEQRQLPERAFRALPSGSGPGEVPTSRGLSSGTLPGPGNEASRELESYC

[2] = biological target: GLP-1 receptor (Homo sapiens, UniProt P43220); conditions: for GLP-1 Receptor % relative activity: activity relative to the native hormone at the indicated receptor; for pEC50: read-out: GLP-1 Receptor EC50, cAMP induction, in vitro, as in Example 14; for % Activity of GLP-1: Table 21, relative to the native peptide
Chain of GLP-1 receptor (P43220 24-463, species assumed): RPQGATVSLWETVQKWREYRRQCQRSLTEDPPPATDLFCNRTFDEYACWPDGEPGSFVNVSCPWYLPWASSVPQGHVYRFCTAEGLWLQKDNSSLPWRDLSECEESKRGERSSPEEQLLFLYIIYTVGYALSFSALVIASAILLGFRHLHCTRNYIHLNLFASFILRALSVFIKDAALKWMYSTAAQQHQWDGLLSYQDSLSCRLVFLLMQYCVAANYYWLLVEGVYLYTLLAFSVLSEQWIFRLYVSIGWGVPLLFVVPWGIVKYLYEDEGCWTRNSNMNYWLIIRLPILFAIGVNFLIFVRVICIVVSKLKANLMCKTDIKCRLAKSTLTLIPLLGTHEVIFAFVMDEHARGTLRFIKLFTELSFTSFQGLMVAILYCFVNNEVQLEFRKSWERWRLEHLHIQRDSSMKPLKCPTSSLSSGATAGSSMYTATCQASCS

[3] = biological target: T2, glucagon receptor (Homo sapiens, UniProt P47871); test: Functional assay-cAMP synthesis, luciferase reporter in HEK293 cells, glucagon receptor; type: cell-based; conditions: for % Activity of Glucagon: Table 21, relative to the native peptide
T2 construct: expressed in transfected cells; host or cells: HEK293
T2 sequence (P47871 26-477): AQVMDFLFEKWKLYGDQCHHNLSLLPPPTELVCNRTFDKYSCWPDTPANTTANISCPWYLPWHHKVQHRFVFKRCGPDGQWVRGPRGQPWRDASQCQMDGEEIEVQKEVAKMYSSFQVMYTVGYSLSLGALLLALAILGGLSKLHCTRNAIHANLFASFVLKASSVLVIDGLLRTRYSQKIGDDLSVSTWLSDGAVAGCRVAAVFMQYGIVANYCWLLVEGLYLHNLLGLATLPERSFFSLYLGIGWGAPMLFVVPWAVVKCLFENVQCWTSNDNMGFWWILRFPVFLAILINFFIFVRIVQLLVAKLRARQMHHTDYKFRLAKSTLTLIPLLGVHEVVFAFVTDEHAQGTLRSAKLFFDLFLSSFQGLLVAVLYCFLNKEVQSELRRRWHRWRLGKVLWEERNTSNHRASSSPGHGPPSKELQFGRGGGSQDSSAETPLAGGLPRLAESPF

[4] = Table 36, relative to the native hormone

Row | % Activity of Glucagon [3] [%] | % Activity of GLP-1 [2] [%] | Compound | GIP Receptor % relative activity [1] [%] | pEC50 [1] | GLP-1 Receptor % relative activity [2] [%] | pEC50 [2] | further results
1 |  |  | mt-352: pegylated glucagon peptide of Table 34 (H[Aib]QGTFTSDYSKYLD[Aib]QAAKEFIC(PEG 40 kDa)WLMNGGPSSGAPPPSK-NH2) | 0.01 | 7.29 | 23.08 | 10.56 | 
2 |  |  | mt-349 (H[Aib]QGTFTSDYSKYLDEQAAKEFIC(PEG 40 kDa)WLMNGGPSSGAPPPSK(Myristoyl)-NH2; also: acylated with a C14 fatty acyl group, site not given here) | 0.18 | 8.70 | 286.36 | 11.66 | Glucagon Receptor % relative activity ([3]; activity relative to the native hormone at the indicated receptor): 3.82%; pEC50 ([3]; read-out: Glucagon Receptor EC50, cAMP induction, in vitro, as in Example 14): 9.26
3 |  |  | mt-351: pegylated glucagon peptide of Table 34 (H[Aib]QGTFTSDYSKYLD[Aib]QAAKEFIC(PEG 40 kDa)WLMNGGPSSGAPPPSK(Myristoyl)-NH2; also: acylated with a C14 fatty acyl group, site not given here) | 0.09 | 8.38 | 150.00 | 11.38 | 
4 |  |  | CCCCCCCCCCCCCCCC(=O)NCCCC[C@H](NC(=O)[C@H](CO)NC(=O)[C@@H]1CCCN1C(=O)[C@@H]1CCCN1C(=O)[C@@H]1CCCN1C(=O)[C@H](C)NC(=O)CNC(=O)[C@H](CO)NC(=O)[C@H](CO)NC(=O)[C@@H]1CCCN1C(=O)CNC(=O)CNC(=O)[C@H](C)NC(=O)[C@H](CC(C)C)NC(=O)[C@H](CC(C)C)NC(=O)[C@H](Cc1c[nH]c2ccccc12)NC(=O)[C@H](CC(N)=O)NC(=O)[C@@H](NC(=O)[C@H](Cc1ccccc1)NC(=O)[C@H](CCC(=O)O)NC(=O)C(C)(C)NC(=O)[C@H](C)NC(=O)[C@H](C)NC(=O)[C@H](CCC(N)=O)NC(=O)[C@H](CCCCN)NC(=O)[C@H](CC(=O)O)NC(=O)[C@H](CC(C)C)NC(=O)[C@H](Cc1ccc(O)cc1)NC(=O)[C@@H](NC(=O)[C@H](CO)NC(=O)[C@H](Cc1ccc(O)cc1)NC(=O)[C@H](CC(=O)O)NC(=O)[C@H](CO)NC(=O)[C@@H](NC(=O)[C@H](Cc1ccccc1)NC(=O)[C@@H](NC(=O)CNC(=O)[C@H](CCC(N)=O)NC(=O)C(C)(C)NC(=O)[C@@H](N)Cc1ccc(O)cc1)[C@@H](C)O)[C@@H](C)CC)[C@@H](C)CC)C(C)C)C(N)=O [mt-358] (H-Y[Aib]QGTFISDYSIYLDKQAA[Aib]EFVNWLLAGGPSSGAPPPSK(Palmitoyl)-NH2) |  |  |  |  | % Relative activity at the Receptor for Glucagon [3, 4]: 710.29%; % Relative activity at the Receptor for GIP [1, 4]: 313.61%; % Relative activity at the Receptor for GLP-1 [2, 4]: 11.89%
5 | 196 | 60 | CCCCCCCCCCCCCCCCCC(=O)NCCCC[C@H](NC(=O)[C@H](CC(=O)O)NC(=O)[C@H](CO)NC(=O)[C@@H](NC(=O)[C@H](Cc1ccccc1)NC(=O)[C@@H](NC(=O)CNC(=O)[C@H](CCC(N)=O)NC(=O)[C@@H](CO)NC(=O)[C@@H](N)Cc1c[nH]cn1)[C@@H](C)O)[C@@H](C)O)C(=O)N[C@@H](CO)C(=O)N[C@@H](CCCCN)C(=O)N[C@@H](Cc1ccc(O)cc1)C(=O)N[C@@H](CC(C)C)C(=O)N[C@@H](CC(=O)O)C(=O)N[C@@H](CCC(=O)O)C(=O)N[C@@H](CCCNC(=N)N)C(=O)N[C@@H](CCCNC(=N)N)C(=O)N[C@@H](C)C(=O)N[C@@H](CCCCN)C(=O)N[C@@H](CC(=O)O)C(=O)N[C@@H](Cc1ccccc1)C(=O)N[C@H](C(=O)N[C@@H](CCC(N)=O)C(=O)N[C@@H](Cc1c[nH]c2ccccc12)C(=O)N[C@@H](CC(C)C)C(=O)N[C@@H](CCSC)C(=O)N[C@@H](CC(N)=O)C(=O)N[C@H](C(N)=O)[C@@H](C)O)C(C)C [dS2, E16/K20, K10(C18) Gluc Amide] |  |  |  |  | 
6 | 21.9 | 6.3 | CCCCCCCCCCCCCC(=O)NCCCC[C@H](NC(=O)[C@H](CC(=O)O)NC(=O)[C@H](CO)NC(=O)[C@@H](NC(=O)[C@H](Cc1ccccc1)NC(=O)[C@@H](NC(=O)CNC(=O)[C@H](CCC(N)=O)NC(=O)[C@@H](CO)NC(=O)[C@@H](N)Cc1c[nH]cn1)[C@@H](C)O)[C@@H](C)O)C(=O)N[C@@H](CO)C(=O)N[C@@H](CCCCN)C(=O)N[C@@H](Cc1ccc(O)cc1)C(=O)N[C@@H](CC(C)C)C(=O)N[C@@H](CC(=O)O)C(=O)N[C@@H](CCC(=O)O)C(=O)N[C@@H](CCCNC(=N)N)C(=O)N[C@@H](CCCNC(=N)N)C(=O)N[C@@H](C)C(=O)N[C@@H](CCCCN)C(=O)N[C@@H](CC(=O)O)C(=O)N[C@@H](Cc1ccccc1)C(=O)N[C@H](C(=O)N[C@@H](CCC(N)=O)C(=O)N[C@@H](Cc1c[nH]c2ccccc12)C(=O)N[C@@H](CC(C)C)C(=O)N[C@@H](CCSC)C(=O)N[C@@H](CC(N)=O)C(=O)N[C@H](C(N)=O)[C@@H](C)O)C(C)C [dS2, E16/K20, K10(C14) Gluc Amide, HXQGTFTSDKSKYLDERRAKDFVQWLMNT-amide] |  |  |  |  | 
7 |  |  | H-HSQGTFTSDYSKYLDSRRAQDFVQWLVKGGPSSGAPPPS-NH2 [VKGG^30 PSSGAPPPS (SEQ ID NO: 524)] |  |  |  |  | Glucagon Receptor Relative Potency ([3]; Table 11): 7%; GLP-1 Receptor Relative Potency ([2]; Table 11): 12%
8 | 44.7 | 19.5 | CCCCCCCCCCCCCCCC(=O)NCCCC[C@H](NC(=O)[C@H](CC(=O)O)NC(=O)[C@H](CO)NC(=O)[C@@H](NC(=O)[C@H](Cc1ccccc1)NC(=O)[C@@H](NC(=O)CNC(=O)[C@H](CCC(N)=O)NC(=O)[C@@H](CO)NC(=O)[C@@H](N)Cc1c[nH]cn1)[C@@H](C)O)[C@@H](C)O)C(=O)N[C@@H](CO)C(=O)N[C@@H](CCCCN)C(=O)N[C@@H](Cc1ccc(O)cc1)C(=O)N[C@@H](CC(C)C)C(=O)N[C@@H](CC(=O)O)C(=O)N[C@@H](CCC(=O)O)C(=O)N[C@@H](CCCNC(=N)N)C(=O)N[C@@H](CCCNC(=N)N)C(=O)N[C@@H](C)C(=O)N[C@@H](CCCCN)C(=O)N[C@@H](CC(=O)O)C(=O)N[C@@H](Cc1ccccc1)C(=O)N[C@H](C(=O)N[C@@H](CCC(N)=O)C(=O)N[C@@H](Cc1c[nH]c2ccccc12)C(=O)N[C@@H](CC(C)C)C(=O)N[C@@H](CCSC)C(=O)N[C@@H](CC(N)=O)C(=O)N[C@H](C(N)=O)[C@@H](C)O)C(C)C [dS2, E16/K20, K10(C16) Gluc Amide, HXQGTFTSDKSKYLDERRAKDFVQWLMNT-amide] |  |  |  |  | 
